Experimental data from publication PMC6754605 (Proceedings of the National Academy of Sciences of the …, 2019).
Residue numbers refer to the chain shown, from its start. In names and notes the source's numbering stands.

B1: mouse SAA3 F24S/M25S double mutant (natural protein, UniProt P04918 19-122, looked up)
chain: QRWVQSSKEAGQGSRDMWRAYSDMKKANWKNSDKYFHARGNYDAARRGPGGAWAAKVISDAREAVQKFTGHGAEDSRADQFANEWGRSGKDPNHFRPAGLPKRY
B2: mouse SAA3 W71S/V75S double mutant (natural protein, UniProt P04918 19-122, looked up)
chain: B1 chain with S6F, S7M, W53S, V57S

Target: the molecule itself
Assay: SEC

| Protein | binding result |
| --- | --- |
| B1 | binds |
| B2 | binds |
